# B1: active MMP-2: Purified human MMP-2 (mixture of the proenzyme (50%) and the active form (50%)) purchased from Biomol (protein, listed as Homo sapiens)
# chain: MEALMARGALTGPLRALCLLGCLLSHAAAAPSPIIKFPGDVAPKTDKELAVQYLNTFYGCPKESCNLFVLKDTLKKMQKFFGLPQTGDLDQNTIETMRKPRCGNPDVANYNFFPRKPKWDKNQITYRIIGYTPDLDPETVDDAFARAFQVWSDVTPLRFSRIHDGEADIMINFGRWEHGDGYPFDGKDGLLAHAFAPGTGVGGDSHFDDDELWTLGEGQVVRVKYGNADGEYCKFPFLFNGKEYNSCTDTGRSDGFLWCSTTYNFEKDGKYGFCPHEALFTMGGNAEGQPCKFPFRFQGTSYDSCTTEGRTDGYRWCGTTEDYDRDKKYGFCPETAMSTVGGNSEGAPCVFPFTFLGNKYESCTSAGRSDGKMWCATTANYDDDRKWGFCPDQGYSLFLVAAHEFGHAMGLEHSQDPGALMAPIYTYTKNFRLSQDDIKGIQELYGASPDIDLGTGPTPTLGPVTPEICKQDIVFDGIAQIRGEIFFFKDRFIWRTVTPRDKPMGPLLVATFWPELPEKIDAVYEAPQEEKAVFFAGNEYWIYSASTLERGYPKPLTSLGLPPDVQRVDAAFNWSKNKKTYIFAGDKFWRYNEVKKKMDPGFPKLIADAWNAIPDNLDAVVDLQGGGHSYFFKGAYYLKLENQSLKSVKFGSIKSDWLGC
# Test system: CD4+ T cells from healthy donors
# Assay: CD4+ T cells stimulated with autologous DCs loaded with whole MMP-2 protein, response to peptide pool
# Type: cell-based, human
# Settings: DCs incubated with MMP-2 protein (10 μM), 12 days
# Experimental: (A) MMP-2-specific CD4^+ T cell clones were generated and characterized as described in Experimental Procedures. Clone HD9828/52 is shown as a representative example. Epitope specificities were assessed after overnight stimulation with individual peptides (2 μM). IFNγ, TNFα and IL-4 release was measured by ELISA. (B) All MMP-2-specific CD4^+ T cell clones were characterized by staining for CD4, CD8 and TCR Vβ chain expression. Clone HD9828/52 is shown as a representative example. (C) To establish HLA class-II isotype restriction, CD4^+ T cell clones were stimulated by corresponding peptides in the absence or presence of blocking mAb (10 μg/mL) for HLA-DP, HLA-DQ or HLA-DR and IFNγ release was measured by ELISA. (D) Purified CD4^+/CD25^− cells were stimulated for 12 days by autologous DCs incubated with MMP-2 protein (10 μM) and subsequently washed. MMP-2-specific CD4^+ T cells were detected by intracellular staining of IFNγ, TNFα and IL-4 after 6 hours of stimulation with MMP-2 peptide pool (2 μM). Numbers in the upper right quadrants are the percentages of each population.
# T Cell culture, stimulation and priming. Peripheral blood mononuclear cells (PBMCs) were purified from healthy donor-(HD) or cord blood donor-(CB) derived buffy coats (New York Blood Center) by Ficoll-Paque Plus (GE Healthcare) centrifugation. CD4^+/CD25^− cells were enriched (>90%) by magnetic cell sorting (Miltenyi Biotec) and primed/stimulated for 12-15 days either with irradiated (35Gy) autologous CD4^− cells or with autologous mature DCs in IMDM (GIBCO) supplemented with 1 mM HEPES (Life Technologies), 2 mM L-glutamine (Sigma), […] (Sigma) and 5% heat inactivated pooled human serum (PHS; Valley Biomedical) in the presence of rhIL-2 (10 UI/mL) and IL7 (5 ng/mL) (R&D Systems). Antigen presenting cells (CD4^− cells or DCs) were loaded either with peptides (2 μM) or with the MMP-2 protein (10 μg/mL) for 2 and 5 h, respectively. DCs were matured using the TLR3 agonist poly(I:C) at 5 μg/mL/10^6 DCs (Amersham). To generate T cell clones, we originally relied on our published methodology (Godefroy et al., 2006; Godefroy et al., 2007; the entire contents of each of which is incorporated herein by reference), involving enrichment of IFNγ-secreting cells upon short-term culture and peptide stimulation to generate MMP-2 responsive clones. Briefly, CD4^+ T cells were stimulated by CD4^− cells irradiated and pulsed with peptides for 12 days in the presence of rhIL-2 and rhIL-7. CD4^+ T cells were then restimulated with peptides for 3 hours before capturing IFNγ-secreting specific cells using a bispecific antibody coating T cells and capturing produced IFNγ. […]
# Intracellular staining T-bet and GATA-3 expression was measured on resting T cells. […]
molecule,measurement,setting,value
B1,cells secreting IFNγ,donor HD6026,0.12%
same,cells secreting IL-4,donor HD6026,0.73%
same,cells secreting IFNγ,donor HD6028,0.17%
same,cells secreting IL-4,donor HD6028,1.99%
